The source of these data is article PMC6306002.

The series relates to T1, OhsR:C125S C125S (Corynebacterium glutamicum), ORF:a3d30e29.
T1 sequence: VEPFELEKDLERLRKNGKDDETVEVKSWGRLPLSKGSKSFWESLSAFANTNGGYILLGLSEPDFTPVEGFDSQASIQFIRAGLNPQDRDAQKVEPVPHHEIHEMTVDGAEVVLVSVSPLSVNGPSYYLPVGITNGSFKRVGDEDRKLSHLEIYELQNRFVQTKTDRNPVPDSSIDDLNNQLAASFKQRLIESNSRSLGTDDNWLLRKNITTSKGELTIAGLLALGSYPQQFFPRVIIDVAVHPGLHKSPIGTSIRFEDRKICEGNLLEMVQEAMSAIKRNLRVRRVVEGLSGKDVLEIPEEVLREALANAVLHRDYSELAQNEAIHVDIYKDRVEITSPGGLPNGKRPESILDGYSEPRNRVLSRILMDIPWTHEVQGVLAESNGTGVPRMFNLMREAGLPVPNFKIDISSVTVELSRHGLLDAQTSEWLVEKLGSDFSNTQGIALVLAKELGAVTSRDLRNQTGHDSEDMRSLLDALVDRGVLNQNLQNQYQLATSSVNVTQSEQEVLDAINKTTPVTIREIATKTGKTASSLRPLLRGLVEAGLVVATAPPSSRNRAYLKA
Put plainly: EMSA. As to conditions: EMSA: 20 mM Tris-HCl pH 7.4, 4 mM MgCl2, 100 mM NaCl, 10% glycerol, room temperature 30 min; 20 ng DNA, 0-4 ug OhsR; 6% native PAGE, 0.5x TBE, SYBR Green.

On to “CACCTTGTTGGTGGGCCGGGATTTTTGTTGTTTAGATTTTTGAAAGCACACTTTTGTCCCTTAACTAGTGCGTGTGTACATTCGACACCAAGATTTGGGCAATATGGTGCCCAAAATCAGGAAATCTTGCTGTCTAATGCACAACGGAAAACTGCTCACGGACGAACTAGTTGTAGCGAGCGTATTCTTTGTGTTCTCTC (double strand) [Pohr (ohr promoter, 200 bp)]”, for which the binding entry is recorded as “no binding”.
